B1: HSP90AB1 (parent)
chain: TLRQKAEADKNDKAVKDLVVLLFE

Variants of: B1
Test: protein stability index of a GFP-peptide fusion (GPS, HEK-293T) (PSI 1-6); higher = more stable
Conditions: c terminus: a fixed tail appended
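Note: lentivirally expressed fusions sorted by FACS into six bins by GFP to DsRed ratio, PSI derived from sequencing read proportions per bin multiplied by bin number.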

Compared with TLRQKAEADKNDYAVKDLVVLLFE, TLRQKAEADKNDWAVKDLVVLLFE is lower in protein stability index: 2.2 for the first, 1.73 for the second.

Compared with TLRQKAEADKNDKAVKDLVVLKFE, TLRQKAEADKNDKAVKDLVVLGFE is higher in protein stability index: 4.47 for the first, 4.5 for the second.

Going from TLRQKAEADKNDKAVKDLVVLRFE to TLRQKAEADKNDKAVKDLVVLMFE, the protein stability index falls from 3.9 to 3.15.

Going from TLRQKAEADKNDKAVKDLVVLNFE to TLRQKAEADKNDKAVKDLVVLCFE, the protein stability index falls from 4.2 to 3.82.

First: TLRQKAEADKNDKAVKDLVVLSFE
Second: TLRQKAEADKNDKAVKDLVVLDFE
The protein stability index of the first is lower: 4.34 for the first, 4.86 for the second.

Going from TLRQKAEADKNDKAVKDLVVLPFE to TLRQKAEADKNDKAVKDLVVLEFE, the protein stability index falls from 4.97 to 4.86.

Compared with TLRQKAEADKNDKAVKDLVVLYFE, TLRQKAEADKNDKAVKDLVVLTFE is higher in protein stability index: 2.78 for the first, 3.96 for the second.

First: TLRQKAEADKNDKAVKDLVVLFFE
Second: TLRQKAEADKNDKAVKDLVVLQFE
The protein stability index of the first is lower: 2.84 for the first, 4.84 for the second.

Compared with TLRQKAEADKNDKAVKDLVVLHFE, TLRQKAEADKNDKAVKDLVVLVFE is lower in protein stability index: 3.79 for the first, 3.73 for the second.

Compared with TLRQKAEADKNDKARKDLVVLLFE, TLRQKAEADKNDKAPKDLVVLLFE is higher in protein stability index: 2.49 for the first, 2.54 for the second.

Compared with TLRQKAEADKNDKALKDLVVLLFE, TLRQKAEADKNDKAKKDLVVLLFE is higher in protein stability index: 2.81 for the first, 3.27 for the second.

First: TLRQKAEADKNDKADKDLVVLLFE
Second: TLRQKAEADKNDKAMKDLVVLLFE
The protein stability index of the first is lower: 3.2 for the first, 3.47 for the second.

Going from TLRQKAEADKNDKAGKDLVVLLFE to TLRQKAEADKNDKAIKDLVVLLFE, the protein stability index falls from 3.48 to 2.48.

First: TLRQKAEADKNDKAWKDLVVLLFE
Second: TLRQKAEADKNDKAAKDLVVLLFE
The protein stability index of the first is lower: 2.64 for the first, 3.1 for the second.

Compared with TLRQKAEADKNDKAEKDLVVLLFE, TLRQKAEADKNDKATKDLVVLLFE is lower in protein stability index: 3.37 for the first, 3.11 for the second.

Going from TLRQKAEADKNDKANKDLVVLLFE to TLRQKAEADKNDKAYKDLVVLLFE, the protein stability index rises from 3.12 to 3.43.

Compared with TLRQKAEADKNDKAFKDLVVLLFE, TLRQKAEADKNDKAQKDLVVLLFE is lower in protein stability index: 2.91 for the first, 2.86 for the second.

Going from TLRQKAEADKNDKASKDLVVLLFE to TLRQKAEADKNDKAVKDLVVLLFI, the protein stability index falls from 3.09 to 2.54.

First: TLRQKAEADKNDKAVKDLVVLLFC
Second: TLRQKAEADKNDKAVKDLVVLLFH
The protein stability index of the first is lower: 1.43 for the first, 2.79 for the second.

First: TLRQKAEADKNDKAVKDLVVLLFF
Second: TLRQKAEADKNDKAVKDLVVLLFD
The protein stability index of the first is lower: 1.83 for the first, 2.83 for the second.

Compared with TLRQKAEADKNDKAVKDLVVLLFN, TLRQKAEADKNDKAVKDLVVLLFG is lower in protein stability index: 2.44 for the first, 2.26 for the second.

First: TLRQKAEADKNDKAVKDLVVLLFR
Second: TLRQKAEADKNDKAVKDLVVLLFL
The protein stability index of the first is lower: 2.04 for the first, 2.54 for the second.

First: TLRQKAEADKNDKAVKDLVVLLFP
Second: TLRQKAEADKNDKAVKDLVVLLFK
The protein stability index of the first is lower: 1.71 for the first, 2.06 for the second.

Going from TLRQKAEADKNDKAVKDLVVLLFA to TLRQKAEADKNDKAVKDLVVLLFQ, the protein stability index rises from 1.89 to 2.64.

Compared with TLRQKAEADKNDKAVKDLVVLLFM, TLRQKAEADKNDKAVKDNVVLLFE is higher in protein stability index: 1.83 for the first, 4.19 for the second.

Compared with TLRQKAEADKNDKAVKDYVVLLFE, TLRQKAEADKNDKAVKDWVVLLFE is higher in protein stability index: 2.87 for the first, 3.19 for the second.

First: TLRQKAEADKNDKAVKDMVVLLFE
Second: TLRQKAEADKNDKAVKDVVVLLFE
The protein stability index of the first is higher: 3.29 for the first, 2.24 for the second.

Compared with TLRQKAEADKNDKAVKDFVVLLFE, TLRQKAEADKNDKAVKDIVVLLFE is higher in protein stability index: 2.24 for the first, 2.95 for the second.

Going from TLRQKAEADKNDKAVKDRVVLLFE to TLRQKAEADKNDKAVKDKVVLLFE, the protein stability index rises from 3.19 to 3.44.

Going from TLRQKAEADKNDKAVKDGVVLLFE to TLRQKAEADKNDKAVKDPVVLLFE, the protein stability index rises from 3.69 to 4.21.

Compared with TLRQKAEADKNDKAVKDQVVLLFE, TLRQKAEADKNDKAVKDCVVLLFE is lower in protein stability index: 4.03 for the first, 2.85 for the second.

First: TLRQKAEADKNDKAVKDEVVLLFE
Second: TLRQKAEADKNDKAVKDHVVLLFE
The protein stability index of the first is higher: 4.04 for the first, 3.3 for the second.

First: TLRQKAEADKNDKAVKDSVVLLFE
Second: TLRQKAEADKNDKAVKDDVVLLFE
The protein stability index of the first is lower: 3.9 for the first, 4.2 for the second.

Compared with TLRQKAEADKNDKAVKDLVVLLNE, TLRQKAEADKNDKAVKDLVVLLSE is lower in protein stability index: 4.73 for the first, 3.95 for the second.

Compared with TLRQKAEADKNDKAVKDLVVLLCE, TLRQKAEADKNDKAVKDLVVLLYE is lower in protein stability index: 3.71 for the first, 3.47 for the second.

First: TLRQKAEADKNDKAVKDLVVLLRE
Second: TLRQKAEADKNDKAVKDLVVLLTE
The protein stability index of the first is lower: 3.79 for the first, 4.76 for the second.

First: TLRQKAEADKNDKAVKDLVVLLWE
Second: TLRQKAEADKNDKAVKDLVVLLGE
The protein stability index of the first is lower: 2.56 for the first, 4.87 for the second.

First: TLRQKAEADKNDKAVKDLVVLLLE
Second: TLRQKAEADKNDKAVKDLVVLLDE
The protein stability index of the first is lower: 3.27 for the first, 5.38 for the second.

First: TLRQKAEADKNDKAVKDLVVLLQE
Second: TLRQKAEADKNDKAVKDLVVLLHE
The protein stability index of the first is higher: 4.55 for the first, 4.5 for the second.

Compared with TLRQKAEADKNDKAVKDLVVLLEE, TLRQKAEADKNDKAVKDLVVLLAE is lower in protein stability index: 5.22 for the first, 3.7 for the second.

Compared with TLRQKAEADKNDKAVKDLVVLLKE, TLRQKAEADKNDKAVKDLVVLLME is lower in protein stability index: 4.69 for the first, 3.37 for the second.

Compared with TLRQKAEADKNDKAVKDLVVLLIE, TLRQKAEADKNDKAVKDLVVLLPE is higher in protein stability index: 2.88 for the first, 5.02 for the second.

Going from TLRQKAEADKNDKAVKDLVNLLFE to TLRQKAEADKNDKAVKDLVRLLFE, the protein stability index falls from 4.46 to 2.88.

Compared with TLRQKAEADKNDKAVKDLVWLLFE, TLRQKAEADKNDKAVKDLVHLLFE is higher in protein stability index: 2.58 for the first, 3.43 for the second.

First: TLRQKAEADKNDKAVKDLVMLLFE
Second: TLRQKAEADKNDKAVKDLVELLFE
The protein stability index of the first is lower: 3.77 for the first, 5.2 for the second.

Going from TLRQKAEADKNDKAVKDLVYLLFE to TLRQKAEADKNDKAVKDLVLLLFE, the protein stability index rises from 2.7 to 3.13.

First: TLRQKAEADKNDKAVKDLVTLLFE
Second: TLRQKAEADKNDKAVKDLVDLLFE
The protein stability index of the first is lower: 3.48 for the first, 5.3 for the second.

From the supplement of paper PMC10567573
